{"source": "patent US20210292396A1", "about": "(INTERNATIONAL AIDS VACCINE INITIATIVE, published 2021)", "test_in_all_cases": "cell-based or functional assay", "key": {"[1]": {"biological_target": "HIV Env of isolate 1394C9G1(Rev-) (HIV)"}, "[2]": {"biological_target": "HIV Env of isolate 6240_08_TA5_4622 (HIV)"}, "[3]": {"biological_target": "HIV Env of isolate 6952.v1.c20 (HIV)"}, "[4]": {"biological_target": "HIV Env of isolate QH0692.42 (HIV)"}, "[5]": {"biological_target": "HIV Env of isolate 3301.v1.c24 (HIV)"}, "[6]": {"biological_target": "HIV Env of isolate 928-28 (HIV)"}, "[7]": {"biological_target": "HIV Env of isolate HIV-16845-2.22 (HIV)"}, "[8]": {"biological_target": "HIV Env of isolate SC422661.8 (HIV)"}, "[9]": {"biological_target": "HIV Env of isolate CNE19 (HIV)"}, "[10]": {"biological_target": "HIV Env of isolate 6244_13_B5_4576 (HIV)"}, "[11]": {"biological_target": "HIV Env of isolate 3817.v2.c59 (HIV)"}, "[12]": {"biological_target": "HIV Env of isolate T211-9 (HIV)"}, "[13]": {"biological_target": "HIV Env of isolate HIV-001428-2.42 (HIV)"}, "[14]": {"biological_target": "HIV Env of isolate 7030102001E5(Rev-) (HIV)"}, "[15]": {"biological_target": "HIV Env of isolate 1006_11_C3_1601 (HIV)"}, "[16]": {"biological_target": "HIV Env of isolate X1254_c3 (HIV)"}, "[17]": {"biological_target": "HIV Env of isolate CNE58 (HIV)"}, "[18]": {"biological_target": "HIV Env of isolate Du172.17 (HIV)"}, "[19]": {"biological_target": "HIV Env of isolate A07412M1.vrc12 (HIV)"}, "[20]": {"biological_target": "HIV Env of isolate CNE21 (HIV)"}, "[21]": {"biological_target": "HIV Env of isolate CNE53 (HIV)"}, "[22]": {"biological_target": "HIV Env of isolate X1193_c1 (HIV)"}, "[23]": {"biological_target": "HIV Env of isolate CAAN5342.A2 (HIV)"}, "[24]": {"biological_target": "HIV Env of isolate PVO.4 (HIV)"}, "[25]": {"biological_target": "HIV Env of isolate Ce1176_A3 (HIV)"}, "[26]": {"biological_target": "HIV Env of isolate ZM53M.PB12 (HIV)"}, "[27]": {"biological_target": "HIV Env of isolate 6811.v7.c18 (HIV)"}, "[28]": {"biological_target": "HIV Env of isolate Du422.1 (HIV)"}, "[29]": {"biological_target": "HIV Env of isolate ZM214M.PL15 (HIV)"}, "[30]": {"biological_target": "HIV Env of isolate 3103.v3.c10 (HIV)"}, "[31]": {"biological_target": "HIV Env of isolate 0330.v4.c3 (HIV)"}, "[32]": {"biological_target": "HIV Env of isolate ZM109F.PB4 (HIV)"}, "[33]": {"biological_target": "HIV Env of isolate T251-18 (HIV)"}, "[34]": {"biological_target": "HIV Env of isolate Ce704809221_1B3 (HIV)"}, "[35]": {"biological_target": "HIV Env of isolate P0402_C2_11 (HIV)"}, "[36]": {"biological_target": "HIV Env of isolate SC05_8C11_2344 (HIV)"}, "[37]": {"biological_target": "HIV Env of isolate AC10.0.29 (HIV)"}, "[38]": {"biological_target": "HIV Env of isolate 235-47 (HIV)"}, "[39]": {"biological_target": "HIV Env of isolate T250-4 (HIV)"}, "[40]": {"biological_target": "HIV Env of isolate CNE20 (HIV)"}, "[41]": {"biological_target": "HIV Env of isolate WEAU_d15_410_5017 (HIV)"}, "[42]": {"biological_target": "HIV Env of isolate CNE52 (HIV)"}, "[43]": {"biological_target": "HIV Env of isolate Ce1172_H1 (HIV)"}, "[44]": {"biological_target": "HIV Env of isolate X2088_c9 (HIV)"}, "[45]": {"biological_target": "HIV Env of isolate REJO4541.67 (HIV)"}}}
{"binder": "ePGT121.15.H6.L1 (antibody, V domains shown) VH: QMQLQESGPGLVKPGETLSLTCSVSGASISSSYWSWLRETPGKGLEWIGYTHHSGDTNYAPSLKSRVHLGLHPSKNQVSLSLTSVTAADTAVYYCARTLHGRRIYGVVAFNEFFTYFYWEVWGKGTQVTVSS VL: SDISVAPGETVRISCGGESIGSRAVQWYQHRAGQAPKLIIYNNQDRPPGIPERFSGSPDIDFGTTATLTITNVEAGDEATYYCHIWDSRRPTNWVFGGGTTLTVL", "values": [{"measurement": "neutralization (Table 6 value)", "setting": "[1]", "value": 0.00288}, {"measurement": "neutralization (Table 6 value)", "setting": "[2]", "value": 0.00465}, {"measurement": "neutralization (Table 6 value)", "setting": "[3]", "value": 0.000793}, {"measurement": "neutralization (Table 6 value)", "setting": "[4]", "value": 0.0126}, {"measurement": "neutralization (Table 6 value)", "setting": "[5]", "value": 0.00134}, {"measurement": "neutralization (Table 6 value)", "setting": "[6]", "value": 0.0852}, {"measurement": "neutralization (Table 6 value)", "setting": "[7]", "value": 0.0283}, {"measurement": "neutralization (Table 6 value)", "setting": "[8]", "value": 0.00285}, {"measurement": "neutralization (Table 6 value)", "setting": "[9]", "value": 0.000806}, {"measurement": "neutralization (Table 6 value)", "setting": "[10]", "value": 0.0055}, {"measurement": "neutralization (Table 6 value)", "setting": "[11]", "value": 0.00361}, {"measurement": "neutralization (Table 6 value)", "setting": "[12]", "value": 0.00751}, {"measurement": "neutralization (Table 6 value)", "setting": "[13]", "value": 0.00181}, {"measurement": "neutralization (Table 6 value)", "setting": "[14]", "value": 0.00241}, {"measurement": "neutralization (Table 6 value)", "setting": "[15]", "value": 0.00214}, {"measurement": "neutralization (Table 6 value)", "setting": "[16]", "value": 0.00272}, {"measurement": "neutralization (Table 6 value)", "setting": "[17]", "value": 0.0145}, {"measurement": "neutralization (Table 6 value)", "setting": "[18]", "value": 0.00203}, {"measurement": "neutralization (Table 6 value)", "setting": "[19]", "value": 0.00204}, {"measurement": "neutralization (Table 6 value)", "setting": "[20]", "value": 0.00124}, {"measurement": "neutralization (Table 6 value)", "setting": "[21]", "value": 0.00306}, {"measurement": "neutralization (Table 6 value)", "setting": "[22]", "value": 0.000518}, {"measurement": "neutralization (Table 6 value)", "setting": "[23]", "value": 0.00221}, {"measurement": "neutralization (Table 6 value)", "setting": "[24]", "value": 0.00517}, {"measurement": "neutralization (Table 6 value)", "setting": "[25]", "value": 0.00302}, {"measurement": "neutralization (Table 6 value)", "setting": "[26]", "value": 0.00204}, {"measurement": "neutralization (Table 6 value)", "setting": "[27]", "value": 0.00114}, {"measurement": "neutralization (Table 6 value)", "setting": "[28]", "value": 0.00264}, {"measurement": "neutralization (Table 6 value)", "setting": "[29]", "value": 0.00993}, {"measurement": "neutralization (Table 6 value)", "setting": "[30]", "value": 0.00513}, {"measurement": "neutralization (Table 6 value)", "setting": "[31]", "value": 0.00764}, {"measurement": "neutralization (Table 6 value)", "setting": "[32]", "value": 0.742}, {"measurement": "neutralization (Table 6 value)", "setting": "[33]", "value": 0.0274}, {"measurement": "neutralization (Table 6 value)", "setting": "[34]", "value": 0.00231}, {"measurement": "neutralization (Table 6 value)", "setting": "[35]", "value": 0.0015}, {"measurement": "neutralization (Table 6 value)", "setting": "[36]", "value": 0.00473}, {"measurement": "neutralization (Table 6 value)", "setting": "[37]", "value": 0.00278}, {"measurement": "neutralization (Table 6 value)", "setting": "[38]", "value": 0.00363}, {"measurement": "neutralization (Table 6 value)", "setting": "[39]", "value": 0.000789}, {"measurement": "neutralization (Table 6 value)", "setting": "[40]", "value": 0.00133}, {"measurement": "neutralization (Table 6 value)", "setting": "[41]", "value": 0.00205}, {"measurement": "neutralization (Table 6 value)", "setting": "[42]", "value": 0.0784}, {"measurement": "neutralization (Table 6 value)", "setting": "[43]", "value": 0.000952}, {"measurement": "neutralization (Table 6 value)", "setting": "[44]", "value": 0.00108}, {"measurement": "neutralization (Table 6 value)", "setting": "[45]", "value": "8e-06"}]}
